This is an account of results in article PMC3040777, “Purification and Characterization of the RecA Protein from Neisseria gonorrhoeae”.

In one data set the target is T1, SSBNg (Neisseria gonorrhoeae, UniProt Q5F7Y0 1-174).
T1 sequence: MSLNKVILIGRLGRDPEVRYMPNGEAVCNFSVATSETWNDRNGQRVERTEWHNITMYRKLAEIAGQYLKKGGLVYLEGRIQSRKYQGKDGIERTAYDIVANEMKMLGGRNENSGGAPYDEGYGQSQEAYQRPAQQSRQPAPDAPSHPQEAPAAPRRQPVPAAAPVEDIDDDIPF
As to the kind of experiment: EMSA; 50 uM nucleotides ssDNA; SSB 10 nM-10 uM; fully bound at 1/10 SSB; affinity similar to SSBEc; EMSA: 20 mM Tris-Cl 39% cation (pH 8.3), 0.5 M NaCl, 1 mM EDTA, 50% glycerol, 10 min at 37 C; 4% native PAGE at 4 C. The note with it: protein: recombinant; tags: none stated (pET21a, native purification); chain copies: 4; label: 5'-6FAM; single strand.

Another data set has as its target SSBEc (Escherichia coli, UniProt P0AGE0 1-178). As to the kind of experiment: EMSA; 50 uM nucleotides ssDNA; SSB 10 nM-10 uM; fully bound at 1/10 SSB; affinity similar to SSBNg; EMSA: 20 mM Tris-Cl 39% cation (pH 8.3), 0.5 M NaCl, 1 mM EDTA, 50% glycerol, 10 min at 37 C; 4% native PAGE at 4 C. The conditions noted are these: protein: recombinant; chain copies: 4; label: 5'-6FAM; single strand. For orientation: In EMSA bound probe runs differently from free probe, usually more slowly.

Sequence of SSBEc (P0AGE0 whole entry): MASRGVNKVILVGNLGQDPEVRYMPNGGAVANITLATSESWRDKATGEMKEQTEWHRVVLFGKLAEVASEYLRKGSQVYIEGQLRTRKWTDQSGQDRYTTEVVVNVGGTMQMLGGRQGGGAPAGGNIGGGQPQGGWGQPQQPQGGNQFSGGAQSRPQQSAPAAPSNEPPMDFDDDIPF

B1: OCN324 50-mer (ssDNA)
DNA: TGCCTCGCGGTAGCTCTTCTCGGAGCGCACGATTCGCACTGCTGATGTTC
As for B1, the binding result with SSBNg and with SSBEc was “binds” in each case.
